# Laboratory results from patent EP4782464A1 (Nanjing Legend Biotech Co., Ltd., dated 2026).
# B1: 21E1 (anti-GCC rabbit monoclonal antibody, B cell clone supernatant) (antibody, V domains shown)
# VH: QSLEESGGRLVTPGTPLTLTCTVSGIDLSSYDMTWVRQAPGKGLEWIGSIGDDGNTYYATWAKGRFTISKTSTTVHLKMTSLTTEDTATYFCARGWSFCKSWGQGTLVTVSS
# VL: AQVLTQTASPVSAAVGGTVTISCQSSQSVANNNLAWYQQKPGQPPSPLIYKASTLESGVPSRFSGSGSGTQFALTISGVQCDDAATYYCQGAYRSGIMAFGGGTEVVVR
# B2: 22G5 (anti-GCC rabbit monoclonal antibody, B cell clone supernatant) (antibody, V domains shown)
# VH: QSVEESGGRLVTPGTPLTLTCTVSGIDLSSYAMTWVRQAPGEGLEWIGTINTISTAYYANWAKGRFTISKTSTTVDLKIASPTTEDTATYFCARDHGYYDVWGQGTLVTVSS
# VL: AQVLTQTPSSVSAAVGGTVTINCQASQSVYKNNYLSWYQQKPGQPPRLLIYDASTLASGVPSRFKGSGSGTQFTLTISGVQCDDAATYYCLGEFSCSSGDCAAFGGGTEVVVK
# B3: 22G5-Rabbit IgG (antibody, V domains shown)
# VH: B2 VH
# VL: AQVLTQTPSSVSAAVGGTVTINCQASQSVYKNNYLSWYQQKPGQPPRLLIYDASTLASGVPSRFKGSGSGTQFTLTISGVQCDDAATYYCLGEFSCSSGDCAAFGGGTEVVVKG
# notes: Recombinant rabbit IgG (IgG1k) expressed in HD CHO-S cells: 22G5 VH-Rabbit IgG CH1-CH2-CH3 and 22G5 VL-Rabbit IgG CL; also called 22G5-Rabbit IgG antibody; 22G5 antibody
# B4: PF0098-Rabbit IgG (antibody, V domains shown)
# VH: QVQLQQPGAELVKPGASVKLSCKASGYTFTSYWMHWVKQRPGQGLEWIGEIKPSNGLTNYIEKFKNKATLTVDKSATTAYMQLSSLTAEDSAVYYCTRTITTTEGYWFFDVWGAGTTVTVSS
# VL: DIVLTQSPASLAVSLGQRATISCRASESVDYYGTSLMQWYQQKPGQPPKLLIYAASNVESGVPARFSGSGSGTDFSLNIHPVEEDDIAMYFCQQTRKVYTFGGGTKLEIKG
# notes: also called PF0098-Rabbit IgG antibody
# B5: 14C2 (anti-GCC rabbit monoclonal antibody, B cell clone supernatant) (antibody, V domains shown)
# VH: QSLEESGGRLVTPGTPLTLTCTASGFSLSNYDMSWVRQAPGKGLEWIGTIEPDGSTWYASWAKGRLTISRTSTTVDLKMTSLTTEDTATYFCVRGAPDYSSNAFNLWGQGTLVTVSS
# VL: DVVMTQTPSSVSEPVGGTVTIKCQASQSISSYLAWYQQKPGQPPKLLIYKASTLASGVSSQFRGSGSGTEFTLTISDLECADAATYYCQSTYAASNKLHFAFGGGTDVVVK
# notes: Tested as native rabbit antibody in B cell clone supernatant; also called 14C2-B cells; clone 14C2
# B6: 48D5 (anti-GCC rabbit monoclonal antibody, B cell clone supernatant) (antibody, V domains shown)
# VH: QSLEESGGRLVKPDETLTITCTVSGIDLSSNAISWVRQAPGEGLEYIGYIGTGGKSFYATWTKGRFTISKTSTTVDLKMTSLTNEDTAMYFCATGNTYLDLWGQGTLVTVSS
# VL: AQVLTQTPSSVSAAVGGTVTINCQSSQSVYGADYLAWYQQKPGQPPKLLIYRASNLASGVPSRFRGSGSGTQFTLTISEVQCDDAATYYCQGTYISSDWLNPFGGGTEVVVK
# B7: 25E2 (anti-GCC rabbit monoclonal antibody, B cell clone supernatant) (antibody, V domains shown)
# VH: QSVEESGGRLVTPGTPLTLTCTVSGIDLNKHAMGWVRQAPTKGLEWIGTIYVSTNTAYASWAKGRFTISKTSSTTVDLKMTSLTTEDTATYFCARGGGSSYYTGELYFNLWGQGTLVTVSS
# VL: AYDMTQTPASVEVAVGGTVSIKCQVSQSIGSWLAWYQQKPGQPPKLLIYSASTLASGVSSRFKGSGSGTEFTLTISDLACVDAATYYCQSYSSASTTAFGGGTEVVVR
# Legend:
# [1] = target: human GCC (guanylyl cyclase C, GUCY2C) on cells (human) (UniProt P25092); assay: flow cytometry, B cell clone supernatant on Dubca-human GCC.Luc cells
# Sequence of human GCC (guanylyl cyclase C, GUCY2C) on cells (human) (P25092 24-1073): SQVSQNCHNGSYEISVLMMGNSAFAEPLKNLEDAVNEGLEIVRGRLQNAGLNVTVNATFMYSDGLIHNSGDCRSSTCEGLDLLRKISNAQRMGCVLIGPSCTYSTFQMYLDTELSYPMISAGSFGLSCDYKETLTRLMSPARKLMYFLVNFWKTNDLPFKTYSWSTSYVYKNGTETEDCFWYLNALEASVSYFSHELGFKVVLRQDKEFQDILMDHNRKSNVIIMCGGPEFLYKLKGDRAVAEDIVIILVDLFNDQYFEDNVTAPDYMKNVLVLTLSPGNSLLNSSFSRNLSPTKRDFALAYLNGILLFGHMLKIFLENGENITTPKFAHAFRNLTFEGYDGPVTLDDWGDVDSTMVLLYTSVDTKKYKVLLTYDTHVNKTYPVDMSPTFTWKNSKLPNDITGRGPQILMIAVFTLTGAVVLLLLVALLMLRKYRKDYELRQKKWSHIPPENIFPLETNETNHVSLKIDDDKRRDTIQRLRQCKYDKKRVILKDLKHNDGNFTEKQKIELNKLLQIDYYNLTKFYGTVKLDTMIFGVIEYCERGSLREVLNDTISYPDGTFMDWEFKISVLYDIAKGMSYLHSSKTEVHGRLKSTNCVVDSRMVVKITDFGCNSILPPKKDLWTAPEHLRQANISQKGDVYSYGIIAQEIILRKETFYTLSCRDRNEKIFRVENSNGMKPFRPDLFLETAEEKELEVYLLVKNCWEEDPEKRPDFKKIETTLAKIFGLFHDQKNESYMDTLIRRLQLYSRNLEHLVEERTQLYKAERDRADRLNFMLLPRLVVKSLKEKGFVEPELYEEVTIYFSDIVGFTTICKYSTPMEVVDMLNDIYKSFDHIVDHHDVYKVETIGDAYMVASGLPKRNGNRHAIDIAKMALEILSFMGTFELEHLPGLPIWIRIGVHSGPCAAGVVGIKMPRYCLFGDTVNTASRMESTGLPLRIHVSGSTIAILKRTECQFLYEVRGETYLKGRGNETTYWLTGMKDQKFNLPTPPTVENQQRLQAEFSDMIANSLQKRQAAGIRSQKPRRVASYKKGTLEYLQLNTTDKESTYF
# [2] = target: mouse GCC (guanylyl cyclase C, GUCY2C) on cells (mouse) (UniProt Q3UWA6); assay: flow cytometry, B cell clone supernatant on Dubca-mouse GCC.Luc cells
# [3] = target: T1, human GCC (guanylyl cyclase C, GUCY2C) on cells (human, UniProt P25092 24-1073); assay: flow cytometry on 293T-human GCC.Luc cells
# T1 construct: whole, on cells; also called Dubca-human GCC.Luc
# T1 sequence (P25092 24-1073): as above
# [4] = target: T2, His-tagged mouse GUCY2C/guanylyl cyclase C protein (ACRO GUC-M52H3) (mouse, UniProt Q3UWA6 20-433, limits assumed); assay: ELISA, plate coated with mouse GCC-his protein at 1 µg/mL
# T2 construct: Bought protein; also called mouse GCC-his protein; mouse GCC-his; not shown: His tag
# T2 sequence (looked up): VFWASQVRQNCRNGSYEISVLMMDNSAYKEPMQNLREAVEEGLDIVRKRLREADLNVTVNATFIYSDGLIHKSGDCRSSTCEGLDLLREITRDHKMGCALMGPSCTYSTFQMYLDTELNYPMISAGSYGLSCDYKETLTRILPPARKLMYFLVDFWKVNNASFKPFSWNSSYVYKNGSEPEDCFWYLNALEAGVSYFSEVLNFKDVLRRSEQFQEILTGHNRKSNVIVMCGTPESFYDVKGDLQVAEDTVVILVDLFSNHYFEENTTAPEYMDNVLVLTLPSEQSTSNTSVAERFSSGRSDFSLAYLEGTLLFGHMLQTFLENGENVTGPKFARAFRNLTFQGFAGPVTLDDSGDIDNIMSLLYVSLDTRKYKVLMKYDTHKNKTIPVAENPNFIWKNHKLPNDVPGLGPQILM
# [5] = target: T3, His-tagged human GUCY2C/Guanylyl cyclase C protein (ACRO GUC-H52H5) (human, UniProt P25092 24-430); assay: ELISA, plate coated with human GCC-his protein at 1 µg/mL
# T3 construct: Bought protein; also called human GCC-his protein; human GCC-his; not shown: His tag
# T3 sequence (P25092 24-430 limits assumed): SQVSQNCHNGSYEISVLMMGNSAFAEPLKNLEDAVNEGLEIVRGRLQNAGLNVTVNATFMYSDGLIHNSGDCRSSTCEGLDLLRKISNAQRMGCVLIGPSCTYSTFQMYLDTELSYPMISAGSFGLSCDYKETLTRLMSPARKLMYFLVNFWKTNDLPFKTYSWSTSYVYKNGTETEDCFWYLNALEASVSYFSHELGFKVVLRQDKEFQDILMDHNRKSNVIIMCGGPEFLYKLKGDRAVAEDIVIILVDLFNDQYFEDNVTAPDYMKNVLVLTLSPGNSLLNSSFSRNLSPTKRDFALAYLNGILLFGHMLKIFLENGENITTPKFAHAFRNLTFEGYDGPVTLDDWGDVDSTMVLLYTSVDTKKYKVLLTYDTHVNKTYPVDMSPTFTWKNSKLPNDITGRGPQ
# [6] = target: T4, mouse GCC (guanylyl cyclase C, GUCY2C) on cells (mouse, UniProt Q3UWA6 20-1072); assay: flow cytometry on 293T-mouse GCC.Luc cells
# T4 construct: whole, on cells; also called Dubca-mouse GCC.Luc
# T4 sequence (looked up): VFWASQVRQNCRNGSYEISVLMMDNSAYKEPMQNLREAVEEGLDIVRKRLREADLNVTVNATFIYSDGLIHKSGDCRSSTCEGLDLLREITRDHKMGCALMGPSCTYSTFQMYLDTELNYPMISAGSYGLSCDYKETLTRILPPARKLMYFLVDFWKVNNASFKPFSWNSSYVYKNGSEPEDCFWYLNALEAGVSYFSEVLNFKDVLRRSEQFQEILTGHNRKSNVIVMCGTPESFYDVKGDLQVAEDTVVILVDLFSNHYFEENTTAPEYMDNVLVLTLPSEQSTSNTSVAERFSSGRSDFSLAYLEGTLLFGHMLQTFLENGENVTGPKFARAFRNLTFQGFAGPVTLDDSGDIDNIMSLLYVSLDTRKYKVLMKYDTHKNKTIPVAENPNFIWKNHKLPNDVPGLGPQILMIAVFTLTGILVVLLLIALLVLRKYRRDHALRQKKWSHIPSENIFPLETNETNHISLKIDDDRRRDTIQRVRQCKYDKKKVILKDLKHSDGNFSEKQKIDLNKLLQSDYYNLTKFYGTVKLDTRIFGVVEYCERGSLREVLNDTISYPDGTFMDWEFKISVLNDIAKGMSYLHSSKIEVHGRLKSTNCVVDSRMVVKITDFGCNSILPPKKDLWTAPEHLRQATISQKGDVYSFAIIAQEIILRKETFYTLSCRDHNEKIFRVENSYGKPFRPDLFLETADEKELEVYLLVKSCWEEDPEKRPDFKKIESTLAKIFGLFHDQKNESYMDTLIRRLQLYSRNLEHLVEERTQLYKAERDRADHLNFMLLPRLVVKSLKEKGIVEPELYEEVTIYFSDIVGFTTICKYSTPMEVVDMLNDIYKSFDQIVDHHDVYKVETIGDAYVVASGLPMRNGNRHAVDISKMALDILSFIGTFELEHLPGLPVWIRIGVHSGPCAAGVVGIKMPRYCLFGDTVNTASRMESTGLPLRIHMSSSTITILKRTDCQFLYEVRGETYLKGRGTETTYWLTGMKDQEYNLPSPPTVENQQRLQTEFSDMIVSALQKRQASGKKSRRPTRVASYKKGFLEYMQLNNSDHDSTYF
# [7] = target: T1, human GCC (guanylyl cyclase C, GUCY2C) …; assay: flow cytometry, B cell clone supernatant on Dubca-human GCC.Luc cells
binder,measurement,setting,value
B1,percent of cells bound (flow cytometry),[1],95.4%
same,percent of cells bound (flow cytometry),[2],99.7%
B2,percent of cells bound (flow cytometry),[1],99.9%
same,percent of cells bound (flow cytometry),[2],74.1%
B3,EC50,[3],102 pM
same,EC50,[4],824 pM
same,EC50,[5],619 pM
same,EC50,[6],1230 pM
B4,EC50,[3],25.4 pM
same,EC50,[4],899 pM
same,EC50,[5],671 pM
same,EC50,[6],284 pM
B5,percent of cells bound (flow cytometry),[2],99.2%
same,binding result,[7],no binding
B6,percent of cells bound (flow cytometry),[1],65.9%
same,percent of cells bound (flow cytometry),[2],81.8%
B7,percent of cells bound (flow cytometry),[1],95.1%
same,percent of cells bound (flow cytometry),[2],95.4%
